Results from the supplement of paper PMC7125110.
± gives the standard error. This sample holds only a part of the variants without activity.

B1: glmS ribozyme (parent)
chain: AUAAAAGCGCCAGAACUACAGAAAUGUAGUUGACGAGGAGGAGGUUUAUCGAAUUUUCGGCGGAUGCCUCCAAA

Assays:
Settings in all cases: with glucosamine-6-phosphate
[1] = variants of: B1; assay: self-cleavage kobs at 40 uM GlcN6P; higher = faster cleavage; RNA array
Outline: (§1)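 A hybridised Cy3 probe tracked barcoded ribozyme variants, transcribed in situ by E. coli RNA polymerase on sequenced MiSeq chips, at 37 °C. The variants received 40 μM to 10 mM glucosamine-6-phosphate in HEPES/KCl/Mg(OAc)2 buffer. kobs came from decay fits and kcat and KM from weighted Michaelis–Menten fits.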

[2] = variants of: B1; assay: self-cleavage kobs at 640 uM GlcN6P; higher = faster cleavage; RNA array
Outline: as §1

[3] = variants of: B1; assay: self-cleavage kobs at 2500 uM GlcN6P; higher = faster cleavage; RNA array
Outline: as §1

[4] = variants of: B1; assay: self-cleavage kobs at 10000 uM GlcN6P; higher = faster cleavage; RNA array
Outline: as §1

[5] = variants of: B1; assay: self-cleavage kobs at 160 uM GlcN6P; higher = faster cleavage; RNA array
Outline: as §1

Variant	self-cleavage kobs at 40 uM GlcN6P [1] [s⁻¹]	self-cleavage kobs at 640 uM GlcN6P [2] [s⁻¹]	self-cleavage kobs at 2500 uM GlcN6P [3] [s⁻¹]	self-cleavage kobs at 10000 uM GlcN6P [4] [s⁻¹]	self-cleavage kobs at 160 uM GlcN6P [5] [s⁻¹]
C16G G59U	< 1e-05	< 1e-05	< 1e-05		
A15U G29A G43A	< 1e-05			< 1e-05	
C16A C50G C68U	0.000143 ± 3.6e-05			0.000227 ± 6.2e-05	
A14U U45G G62C	< 1e-05			< 1e-05	
G29A U55C	0.000113 ± 2.5e-05	0.00146 ± 0.00032	0.00194 ± 0.00056	0.00384 ± 0.00092	9.66e-05 ± 2.7e-05
C16U G60C C67A	< 1e-05				
A15C G62A	< 1e-05	< 1e-05	< 1e-05	< 1e-05	< 1e-05
A15G G29U U54C	2.83e-05 ± 1.3e-05	0.000321 ± 0.0001	0.000796 ± 0.00016		
C16G G62U C67G	< 1e-05				
C16G C34G C50A A64G	< 1e-05				
C16U G38C A48G C50U U55G	< 1e-05			< 1e-05	
G29A A48G	< 1e-05	< 1e-05			< 1e-05
A15G G41U	0.000204 ± 2.3e-05	0.000507 ± 8.7e-05	0.00155 ± 0.00029		0.000282 ± 4.5e-05
G29A A36U A39G G41U C67G	< 1e-05		< 1e-05		
C16G A39G G51U U55A	< 1e-05	< 1e-05			
A15G G37C C58U	< 1e-05				
G26U C70U	0.000967 ± 0.00041		0.000552 ± 0.0002		0.00126 ± 0.00046
C16U G37A	7.36e-05 ± 1.1e-05	0.000713 ± 7.9e-05	0.00123 ± 0.00015	0.00262 ± 0.00044	0.000108 ± 1.3e-05
G29A A39G	0.000267 ± 3.9e-05	0.00148 ± 0.00051	0.00297 ± 0.00077	0.0102 ± 0.0018	
A15U A52U C70A	< 1e-05				
C16U C70U	0.00111 ± 0.00017	0.00284 ± 0.0011	0.00209 ± 0.0004	0.00694 ± 0.0028	0.000974 ± 0.0002
G29C G37U G63U	< 1e-05				
G29U A36C A39C	< 1e-05			< 1e-05	
G29A C71U	0.000141 ± 2e-05	0.000549 ± 7.9e-05	0.00526 ± 0.0012	0.00436 ± 0.00077	0.000261 ± 8.2e-05
C16U C50G G59A C68A	4.62e-05 ± 2.3e-05			4.07e-05 ± 1.3e-05	
G21U G40C	0.000253 ± 6.1e-05			0.00248 ± 0.00053	

Variant	self-cleavage kobs at 40 uM GlcN6P [1] [s⁻¹]	self-cleavage kobs at 640 uM GlcN6P [2] [s⁻¹]	self-cleavage kobs at 2500 uM GlcN6P [3] [s⁻¹]	self-cleavage kobs at 10000 uM GlcN6P [4] [s⁻¹]	self-cleavage kobs at 160 uM GlcN6P [5] [s⁻¹]
G29A U31C G35U G66A	< 1e-05				
A23C C71U	0.00121 ± 0.0003	0.00652 ± 0.0018			0.000719 ± 0.0002
A15U A52U G66C	< 1e-05				< 1e-05
G29U C70U	0.000204 ± 2.4e-05	0.000574 ± 7.2e-05	0.00187 ± 0.00047	0.00452 ± 0.00093	0.000273 ± 4.2e-05
A15U C61G	< 1e-05			< 1e-05	
C16G U69C	5.13e-05 ± 2e-05			0.000195 ± 5.5e-05	
A28C C34A G62C	< 1e-05			< 1e-05	
C16A G29C G37U	< 1e-05		< 1e-05		
C16G G63A	< 1e-05			< 1e-05	
G29C A36U	< 1e-05	< 1e-05			
G29C U56G C70U	6.27e-05 ± 2.2e-05			0.00013 ± 3.2e-05	
G29A C61U G63A	< 1e-05				
A15U G29C A48G C71A	< 1e-05				
C16A G29U	0.000701 ± 7.4e-05	0.00517 ± 0.00081	0.0144 ± 0.0033	0.0387 ± 0.0071	0.00212 ± 0.00064
G29C U49A	< 1e-05			< 1e-05	
C16A U49C C71G	< 1e-05			< 1e-05	
C16U U30G	4.04e-05 ± 1.4e-05	0.000244 ± 6.5e-05	0.000944 ± 0.00032	0.00235 ± 0.00062	6.14e-05 ± 1.5e-05
G29C G38U A48C	< 1e-05	< 1e-05		< 1e-05	
C16U G29A G37C	< 1e-05			5.01e-05 ± 1.6e-05	
G29C C34U	< 1e-05	< 1e-05	< 1e-05	< 1e-05	< 1e-05
A15G U47A	0.000718 ± 0.00011		0.0116 ± 0.0042	0.03 ± 0.0073	
C16G U57C	< 1e-05			3.37e-05 ± 1.2e-05	< 1e-05
A15U A36G	< 1e-05	< 1e-05		< 1e-05	
C16U U54A	0.000888 ± 0.00012	0.00323 ± 0.00079	0.00607 ± 0.0014	0.0405 ± 0.0081	0.00185 ± 0.0004
C16U U54C	0.000813 ± 0.00013	0.00641 ± 0.001	0.00606 ± 0.0012	0.0254 ± 0.0047	0.00146 ± 0.00024
A15C A33U	< 1e-05				< 1e-05

Variant	self-cleavage kobs at 40 uM GlcN6P [1] [s⁻¹]	self-cleavage kobs at 640 uM GlcN6P [2] [s⁻¹]	self-cleavage kobs at 2500 uM GlcN6P [3] [s⁻¹]	self-cleavage kobs at 10000 uM GlcN6P [4] [s⁻¹]	self-cleavage kobs at 160 uM GlcN6P [5] [s⁻¹]
C16A U31C A42G G44U C70G	< 1e-05				
C16A U47C C50G G66A C67U U69G	7.74e-05 ± 2.6e-05			4.24e-05 ± 1.6e-05	
G29C A33C U69A	< 1e-05				
C16A G35U G43C C68U	< 1e-05	< 1e-05			< 1e-05
C16G G40A A64C	< 1e-05			< 1e-05	
A15C C61U U69G	< 1e-05			< 1e-05	
G29A G37C U69C	< 1e-05			< 1e-05	
C16G G38C	< 1e-05				< 1e-05
A15G G29A G63U	< 1e-05			< 1e-05	
G29U G32A U65G G66A	< 1e-05			4.66e-05 ± 1.9e-05	
C19A U31A	0.000156 ± 5.1e-05		0.00209 ± 0.001	0.00693 ± 0.0019	
C16U G41A U56C	< 1e-05			3.75e-05 ± 1.4e-05	
C16U G32U A48C G59C	< 1e-05			< 1e-05	
C16G G29C	0.000686 ± 9.2e-05	0.00972 ± 0.0043	0.00501 ± 0.0018	0.0294 ± 0.0058	0.00103 ± 0.00047
C16A C58U	< 1e-05			3.14e-05 ± 1.3e-05	< 1e-05
G26U U46G	0.000306 ± 7.3e-05			0.00888 ± 0.0026	
A15U G37C G38U	< 1e-05				
G29A G32U C34G C50A C61U	< 1e-05			< 1e-05	
A15U G59C	< 1e-05	< 1e-05	< 1e-05	< 1e-05	< 1e-05
C16A U55A	7.92e-05 ± 1.5e-05		0.000515 ± 0.00022	0.00285 ± 0.00043	
C16A G41C	< 1e-05	< 1e-05			< 1e-05
G29A G35U C50U	< 1e-05			< 1e-05	
A15G U25A C50G C70U	6.43e-05 ± 1.3e-05			6.03e-05 ± 1.6e-05	
A15G U30G	0.000265 ± 4.2e-05	0.00124 ± 0.00035		0.00934 ± 0.002	0.000476 ± 0.00016
A15U C68A C71A	< 1e-05				
C16A C34A G37U C50A C61A	0.000276 ± 6.5e-05			0.000316 ± 6.4e-05	

Variant	self-cleavage kobs at 40 uM GlcN6P [1] [s⁻¹]	self-cleavage kobs at 640 uM GlcN6P [2] [s⁻¹]	self-cleavage kobs at 2500 uM GlcN6P [3] [s⁻¹]	self-cleavage kobs at 10000 uM GlcN6P [4] [s⁻¹]	self-cleavage kobs at 160 uM GlcN6P [5] [s⁻¹]
C16G C34G G60U C61G U65A C67G	8.29e-05 ± 1.8e-05		0.000198 ± 6.9e-05		
C16U G40U U56A C71G	3.89e-05 ± 1.1e-05			0.00169 ± 0.00032	
A14U U54A G59C	< 1e-05			< 1e-05	
A14U U46G G63A U65A C70G C71G	4.47e-05 ± 2e-05				
A15U A36C U46G	< 1e-05			< 1e-05	
A15G U47G G60A C61U C68A	6.07e-05 ± 2.7e-05	0.000299 ± 9.2e-05	0.00013 ± 3.6e-05		
A15G A52G C58G	< 1e-05			8.04e-05 ± 2.1e-05	
A15U G32U A33U	< 1e-05				
C16G U31A G35C G40A	< 1e-05		< 1e-05	< 1e-05	
G21U G43U G51U	< 1e-05	< 1e-05		< 1e-05	
G29A G37U G40U U65G C68U	< 1e-05				
C16U C34U	< 1e-05			< 1e-05	< 1e-05
C16U C61G U65G	< 1e-05				
A15C G37U	< 1e-05	< 1e-05		< 1e-05	
A15U A33U C61G	< 1e-05				
C16A U31A G32U G40C G41A C67U C68U	< 1e-05			< 1e-05	
C16A G43C A48G C67U	< 1e-05			< 1e-05	
G29C G62A	< 1e-05	< 1e-05			
G29C G62U	< 1e-05				< 1e-05
A15G U45A	0.00128 ± 0.00026	0.025 ± 0.0066	0.046 ± 0.019	0.098 ± 0.043	0.00318 ± 0.0012
G21U C67G	9.41e-05 ± 2.8e-05		0.000139 ± 4.1e-05	0.00119 ± 0.00023	
C16A C61U C70A	< 1e-05				
A15U C50G C61A	0.000142 ± 3e-05			7.29e-05 ± 1.7e-05	
